Assay: soluble on expression in E. coli; label from the status in PepcDB or PDB records

| Sequence | soluble on expression in E. coli |
| --- | --- |
| MGAASCEDEELEFKLVFGEEKEAPPLGAGGLGEELDSEDAPPCCRLALGEPPPYGAAPIGIPRPPPPRPGMHSPPPRPAPSPGTWESQPARSVRLGGPGGGAGGAGGGRVLECPSIRITSISPTPEPPAALEDNPDAWGDGSPRDYPPPEGFGGYREAGAQGGGAFFSPSPGSSSLSSWSFFSDASDEAALYAACDEVESELNEAASRFGLGSPLPSPRASPRPWTPEDPWSLYGPSPGGRGPEDSWLLLSAPGPTPASPRPASPCGKRRYSSSGTPSSASPALSRRGSLGEEGSEPPPPPPLPLARDPGSPGPFDYVGAPPAESIPQKTRRTSSEQAVALPRSEEPASCNGKLPLGAEESVAPPGGSRKEVAGMDYLAVPSPLAWSKARIGGHSPIFRTSALPPLDWPLPSQYEQLELRIEVQPRAHHRAHYETEGSRGAVKAAPGGHPVVKLLGYSEKPLTLQMFIGTADERNLRPHAFYQVHRITGKMVATASYEAVVSGTKVLEMTLLPENNMAANIDCAGILKLRNSDIELRKGETDIGRKNTRVRLVFRVHVPQGGGKVVSVQAASVPIECSQRSAQELPQVEAYSPSACSVRGGEELVLTGSNFLPDSKVVFIERGPDGKLQWEEEATVNRLQSNEVTLTLTVPEYSNKRVSRPVQVYFYVSNGRRKRSPTQSFRFLPVICKEEPLPDSSLRGFPSASATPFGTDMDFSPPRPPYPSYPHEDPACETPYLSEGFGYGMPPLYPQTGPPPSYRPGLRMFPETRGTT | soluble |
| MGHHHHHHSHMSKAIKQNLADSKKMSAELFCLTYGAMVTEMLKDYEDPKDVTIQLDKMGFNMGTRLADDFLAKNANVPRCVDTRQIADVLCRNAIPCYLGISATASSWTSGDREFTITLEANPLTELVQVPAHLVSAGLSYSQLIAGAIRGALEAVHFKVYASATDTGANTEIRIRFDQVLKDSLPAGEDD | soluble |
| MGSSHHHHHHSSGLVPRGSHMLDIMSDDGDITAVSSGNRDIAQVVTENNKNYLVLYASQTGTAEGFAKAFSKELVAKFNLNVMCADVENYDFESLNDVPVIVSIFISTYGEGDFPDGAVNFEDFICNAEAGALSNLRYNMFGLGNSTYEFFNGAAKKAEKHLSAAGAIRLGKLGEADDGAGTTDEDYMAWKDSILEVLKDELHLDEQEAKFTSQFQYTVLNEITDSMSLGEPSAHYLPSHQLNRNADGIQLGPFDLSQPYIAPIVKSRELFSSNDRNCIHSEFDLSGSNIKYSTGDHLAVWPSNPLEKVEQFLSIFNLDPETIFDLKPLDPTVKVPFPTPTTIGAAIKHYLEITGPVSRQLFSSLIQFAPNADVKEKLTLLSKDKDQFAVEITSKYFNIADALKYLSDGAKWDTVPMQFLVESVPQMTPRYYSISSSSLSEKQTVHVTSIVENFPNPELPDAPPVVGVTTNLLRNIQLAQNNVNIAETNLPVHYDLNGPRKLFANYKLPVHVRRSNFRLPSNPSTPVIMIGPGTGVAPFRGFIRERVAFLESQKKGGNNVSLGKHILFYGSRNTDDFLYQDEWPEYAKKLDGSFEMVVAHSRLPNTKKVYVQDKLKDYEDQVFEMINNGAFIYVCGDAKGMAKGVSTALVGILSRGKSITTDEATELIKMLKTSGRYQEDVW | soluble |
| MGSDKIHHHHHHMIGVAEVVLDVRDLRIYYRTLYGYVKAVDGVSFDIKRGEILGIAGESGCGKSTLGNGLILLKPPMKYMGGEAILDGKNIMALSPKELRKVRYEKISIIPQYAMDAMNPTKKIKQIIDDLLHEHGESFERKKDVIEERLEIVNLGKKVLNMYPIELSGGMKQRMVMVISTLMNPDVLIADEITSALDVSSQRSVIQMLYEMREKEIMGSLAFITHDLSVLYQIADKVMVLYAGRVAEISPMEDIIQEPLHPYTKMLLSSLPKIGVRYSQTKLKGIPGYPPSLLNIGPGCRFRDRCPYAFEKCEQDPPVFDVDGRKVSCWLFERGDAN | not soluble |
| EGRATHLQGLVVDITERKEAQKMLEIQRELGAKLNTTWNLHAILNMVLDACLQINGIDAGGVYIRDELLDQINLVQSRGISPEFKEKVSRFKADSNEAKQVWAEKPIYSMDFYSDKMAEAARKEGIKAVAVIPLKYSNEIIGSLNFASH | not soluble |
| MSLDKSLLKIVTNETGVATTTVEKVIALLDEGNTVPFIARYRKEVTGGLDEVKIKSIQDKWNYVVNLSERKQEVLRIIEEQGKLTKELENDIKAATQLQRVEDLYRPYKQKRRTRATIAKEKGLEPLALLVWSQEKDIDLQEEAKQYFSEEHELHTTEDVLQGINDIIAEWISDDAKYRDYIRDITFKRGLIQSEVKKQEDDEKGIYEMYYSYSEAVRSLVSHRILALNRGEKEKILKVQIEPPVEQITSYLEKQTIKNNSNEQITNSLKAAVEDSYKRLIQPSIEREIRNELTEKAEAQAIEVFSVNLKNLLLQPPLKGKVVLSVDPAFRTGCKLAVVDETGKVHHIGVIYPTAPKNDVKGAEKVVLQLIEQFSVELIAIGNGTASRETEQFISDVIRNKELDLPYIIVNEAGASVYSASPLAREEFPDLQVEERSAVSIARRVQDPLAELVKIDPKSIGVGQYQHDVSQKELSGSLSFVVETAVNQVGVNVNTASSSLLQYVSGLSKTVANNMVKQRNEEGKFTNRKQLKKIPRLGAKTYEQAIGFLRIPDGDTILDRTPIHPESYDQTKNLLQMLGYTENDIGSEKLQQDLNNIDKKATAEKLEIGLPTLEDIMEALGKPGRDPRDDFPQPLLKKNVMNMEDLKSGMELQGTVRNVVDFGVFVDIGVKQDGLVHISKMSKQFVKHPMDIASVGDVVTVWVDQVDVQKGRIALTMVGNDEGHHHHHH | soluble |
| MEQSVANLVDMRDVSFTRGNRCIFDNISLTVPRGKITAIMGPSGIGKTTLLRLIGGQIAPDHGEILFDGENIPAMSRSRLYTVRKRMSMLFQSGALFTDMNVFDNVAYPLREHTQLPAPLLHSTVMMKLEAVGLRGAAKLMPSELSGGMARRAALARAIALEPDLIMFDEPFVGQDPITMGVLVKLISELNSALGVTCVVVSHDVPEVLSIADHAWILADKKIVAHGSAQALQANPDPRVRQFLDGIADGPVPFRYPAGDYHADLLPGS | not soluble |
| MNKLYIGNLSPAVTADDLRQLFGDRKLPLAGQVLLKSGYAFVDYPDQNWAIRAIETLSGKVELHGKIMEVDYSVSKKLRSRKIQIRNIPPHLQWEVLDGLLAQYGTVENVEQVNTDTETAVVNVTYATREEAKIAMEKLSGHQFENYSFKISYIPDEEVSSPSPPQRAQRGDHSSREQGHAPGGTSQARQIDFPLRILVPTQFVGAIIGKEGLTIKNITKQTQSRVDIHRKENSGAAEKPVTIHATPEGTSEACRMILEIMQKEADETKLAEEIPLKILAHNGLVGRLIGKEGRNLKKIEHETGTKITISSLQDLSIYNPERTITVKGTVEACASAEIEIMKKLREAFENDMLAVNQQANLIPGLNLSALGIFSTGLSVLSPPAGPRGAPPAAPYHPFTTHSGYFSSLYPHHQFGPFPHHHSYPEQEIVNLFIPTQAVGAIIGKKGAHIKQLARFAGASIKIAPAEGPDVSERMVIITGPPEAQFKAQGRIFGKLKEENFFNPKEEVKLEAHIRVPSSTAGRVIGKGGKTVNELQNLTSAEVIVPRDQTPDENEEVIVRIIGHFFASQTAQRKIREIVQQVKQQEQKYPQGVASQRSK | soluble |
| GPGSMSYYCSGGHCLKYATPGREPPDPQLFPHYMQNAQNLWLHFSEWWPHGDGGSCPAPPTKGVVFIVPGLGEHTGRYDSVALRLNQEGYVVFSMDNQGTGGSEGERLYVECFTHFVDDVCAFVVFIQTRYAALKSQPTFLMGHSMGGLIATLVAQRDASGFRGVVLSGPALGLSKPVPCFMRSLAHFLSQWFPKLPVRKLDPDLVSYNTPVVQLVKQDPFYSNVTLRARFVDEMLIAQDRAAEAAGTSQFPFLIVHGEEDQLCSLETSKSFFKSALSEDKNLVSYPRAGHEVLTELCRAEVMAEVIKFIDERAR | not soluble |
| MDSSSISSLLEDLKHSDALVREQATKKLWRIWFQQKGMYGLEKIDQSQKLLDAGEITEAEVMLTQLIQEQPDFAEAWNRRAFLYYSMGEYQKSLADCQMVIQINPVHFGALHGIGLCYAALGKYAKAIKAFKRALEIQPYSLVNQKLILECTFRLSLEHHHHHH | not soluble |
| ATRSPGVVISDDEPGYDLDLFCIPNHYAEDLERVFIPHGLIMDRTERLARDVMKEMGGHHIVALCVLKGGYKFFADLLDYIKALNRNSDRSIPMTVDFIRLKSYCNDQSTGDIKVIGGDDLSTLTGKNVLIVEDIIDTGKTMQTLLSLVRQYNPKMVKVASLLVKRTPRSVGYKPDFVGFEIPDKFVVGYALDYNEYFRDLNHVCVISETGKAKYKA | soluble |
| GSHMNKKSFQCSNCSVTETIRWRNIRSKEGIQCNACFIYQRKYNKTRPVTAVNKYQKRKLKVQETNGVDSF | soluble |
| MSKKEETIFFRIEKENRPESSKKEEDENSTEEMTTLNHASVTLDHSAFAIADKDGFKMYQLNPLHFRMYKDYVIKVGPVRLVKQDGNSRRIIYVSALAGGRFAQNNLMIFDVARNEEYFEITTPSRYGPITNIHVSPNRLVALNPNRMFVWTYPDDIKQIRSEDIRSNPKGISAMSYDPTTAACYLAYPGFKTGSVQIMHLNALTARESKSPIVIEAHLTDIAQVALNCQGTLVATGSTKGTVIRVFDARTKGPLYELRRGTVQAHLQCMAFSPCSSYLAVASDKGTLHMFGIRDAEPQKKKNVLERSRGSSSIVKIQLDRPVMAIGFGKIPETPKNLQSIIAICADATYWRHEFYKDNTGNFTSHFGSYDELIEVANDSSFFRTPVE | not soluble |
| MWPLALVIASLTLALSGGVSQESSKVLNTNGTSGFLPGGYTCFPHSQPWQAALLVQGRLLCGGVLVHPKWVLTAAHCLKEGLKVYLGKHALGRVEAGEQVREVVHSIPHPEYRRSPTHLNHDHDIMLLELQSPVQLTGYIQTLPLSHNNRLTPGTTCRVSGWGTTTSPQVNYPKTLQCANIQLRSDEECRQVYPGKITDNMLCAGTKEGGKDSCEGDSGGPLVCNRTLYGIVSWGDFPCGQPDRPGVYTRVSRYVLWIRETIRKYETQQQKWLKGPQ | soluble |
| MGSDKIHHHHHHMQPSAVTNTTNLTASPSQFYTWQNYRCTYEIHQPTNTTSEGIPLLLIHPIGVGLSRQFWQRFCHEWYNSGQRNSIYNPDLLGCGESDMPHLAYTPSDWAEQLQYFLQTVVRQPVIVVVQGALLPVAIALVQKESNLISRLVLSGPPTWALMTNKPPEWQQKFIWNVLDSPLGIPFYRYARTPKFLRSFSTRQLFASESAVDAEWLNTLVAGAENPASRHAVFSFLAGFWRQDYTNFMASIQQPTLAVVGETASSISQNNKKETPDDRLANYLACFPQSRGIKINGRNVLPYESTAEFVAAIAPFINEVS | not soluble |
| GSKGDSKETRLTLMEEVLLLGLKDREGYTSFWNDCISSGLRGCMLIELALRGRLQLEACGMRRKSLLTRKVICKSDAPTGDVLLDEALKHVKETQPPETVQNWIELLSGETWNPLKLHYQLRNVRERLAKNLVEKGVLTTEKQNFLLFDMTTHPLTNNNIKQRLIKKVQEAVLDKWVNDPHRMDRRLLALIYLAHASDVLENAFAPLLDEQYDLATKRVRQLLDLDPEVECLKANTNEVLWAVVAAFTK | soluble |
| TLPRPFFILAPMEDVTNIVFRHVVSEAARPDVFFTEFTNTESYCHPEGIHSVRGRLTFSDDEQPMVAHIWGDKPEQFREMSIGLADMGFKGIDLNMGCPVANVAKKGKGSGLILRPETAAEIIQASKAGGLPVSVKTRLGYYDIDEWRDWLKHVFEQDIANLSIHLRTRKEMSKVDAHWELIEAIKTLRDEIAPNTLLTINGDIPDRQTGLELANKYGIDGIMIGRGIFHNPFAFEKEPREHSSKELLGL | not soluble |
| MAHHHHHHMESINRNNNINKNEIDNKINNNNNMDVPIEGNEKSQEGDIIGQFGVGFYSSFVVSNKVEVFTRSYDNNSSKGYHWVSYGNGTFTLKEVDNIPKGTKIICHLKDSCKEFSNIQNVQKIVEKFSSFINFPVYVLKKKKILQT | soluble |

Source: the DeepSol protein solubility set
